This is an account of results in paper PMC8111002 (Communications Biology, 2021).

The target of data set [1] is Stx2a A-subunit (enterohemorrhagic Escherichia coli, UniProt P09385 23-319). In words: crystal structure. To be noted: both partners purified.
Data set [2] deals with the molecule itself. In words: crystal structure.

B1: Stx2a B-subunit pentamer of the holotoxin (untagged) (natural protein)
chain: ADCAKGKIEFSKYNEDDTFTVKVDGKEYWTSRWNLQPLLQSAQLTGMTVTIKSSTCESGSGFAEVQFNND
Take B1: the binding result in data set [1] and in data set [2] was “binds” in each case.
